Common to all, as to conditions: both partners purified
Assay [1] deals with T1, P. vivax Reticulocyte Binding Protein 2b, residues 161–1454 (P. vivax strain Salvador I, UniProt A5K736, DyLight 488 (NHS ester) in the FRET assay; biotin (BirA site) in the competition ELISA between human mAbs).
T1 construct: PvRBP2b, P. vivax strain Salvador I, PlasmoDB PVX_094255 (total length 2806 amino acids), residues 161-1454; also called PvRBP2b_(161–1454); PvRBP2b; source: recombinant; expressed and purified in a similar manner as PvRBP2b161–470 (E. coli SHuffle T7; HisTrap, Q-Sepharose, size exclusion) or as previously described
Kind of assay: ELISA; avidity ELISA: plates coated with 50 ng PvRBP2b161–1454; human mAbs at 0.2 µg/mL; then PBS, 0.5, 1 or 2 M NH4SCN for 20 min; binding relative to no NH4SCN. For orientation: ELISA stands for enzyme-linked immunosorbent assay.

In assay [2] the target is T1, P. vivax Reticulocyte Binding Protein …. Kind of assay: FRET or BRET; PvRBP2b161–1454-DL488, TfR1-DL594 and Tf at 1:1:1 molar ratio, 5-fold excess of human mAbs; 50 mM Tris-HCl pH 6.8, 150 mM NaCl, 0.01% BSA. (BRET reads energy transfer from a luciferase to a nearby fluorophore.)
Assay [3] has the same target. Kind of assay: ELISA; plates coated with 65 nM recombinant protein in PBS at 4 °C overnight; human mAbs at 1 μg/mL, 1 h room temperature; HRP anti-human secondary; specificity panel and PvRBP2b fragments.
The target is the same in assay [4]. In words: flow cytometry on cells; PvRBP2b161–1454 at 4 μg/mL with human mAbs at 5-fold molar excess and reticulocytes, 1 h room temperature; inhibition relative to no mAb.
The target in assay [5] is T2, human Transferrin receptor 1 – Transferrin (human, UniProt P02786 121-760; P02787 20-698, DyLight 594 (NHS ester) in the FRET assay).
T2 construct: soluble ectodomain of human transferrin receptor 1, residues 121-760; follows the GP67 leader peptide, a 6xHis-tag and a factor Xa site; transferrin purified from human serum (apo-transferrin), loaded with iron to holo-transferrin; TfR1 and Tf were mixed with PvRBP2b in equal amounts in the assays; also called TfR1–Tf; TfR1 and Tf; copies: 2 + 2
In words: FRET or BRET; PvRBP2b161–1454-DL488, TfR1-DL594 and Tf at 1:1:1 molar ratio, 5-fold excess of human mAbs; 50 mM Tris-HCl pH 6.8, 150 mM NaCl, 0.01% BSA.

T2 sequence (P02786 121-760, chain 1 of 2): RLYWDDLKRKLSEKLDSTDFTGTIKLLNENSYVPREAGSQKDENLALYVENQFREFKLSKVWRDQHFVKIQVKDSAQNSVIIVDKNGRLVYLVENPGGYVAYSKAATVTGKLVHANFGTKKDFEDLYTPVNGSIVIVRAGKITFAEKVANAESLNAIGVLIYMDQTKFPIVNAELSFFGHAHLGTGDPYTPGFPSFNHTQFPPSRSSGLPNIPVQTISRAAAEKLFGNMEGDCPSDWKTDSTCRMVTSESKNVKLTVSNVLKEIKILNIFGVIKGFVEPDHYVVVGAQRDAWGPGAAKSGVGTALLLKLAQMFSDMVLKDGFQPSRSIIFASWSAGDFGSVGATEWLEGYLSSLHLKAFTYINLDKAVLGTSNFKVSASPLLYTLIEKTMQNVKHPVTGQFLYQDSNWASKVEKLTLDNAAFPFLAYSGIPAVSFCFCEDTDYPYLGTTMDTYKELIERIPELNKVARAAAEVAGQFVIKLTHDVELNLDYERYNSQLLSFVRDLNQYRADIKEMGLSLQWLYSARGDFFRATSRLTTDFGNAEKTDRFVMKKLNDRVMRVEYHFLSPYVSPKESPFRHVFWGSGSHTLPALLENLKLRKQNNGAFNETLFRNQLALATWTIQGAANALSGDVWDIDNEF
T2 sequence (P02787 20-698, chain 2 of 2): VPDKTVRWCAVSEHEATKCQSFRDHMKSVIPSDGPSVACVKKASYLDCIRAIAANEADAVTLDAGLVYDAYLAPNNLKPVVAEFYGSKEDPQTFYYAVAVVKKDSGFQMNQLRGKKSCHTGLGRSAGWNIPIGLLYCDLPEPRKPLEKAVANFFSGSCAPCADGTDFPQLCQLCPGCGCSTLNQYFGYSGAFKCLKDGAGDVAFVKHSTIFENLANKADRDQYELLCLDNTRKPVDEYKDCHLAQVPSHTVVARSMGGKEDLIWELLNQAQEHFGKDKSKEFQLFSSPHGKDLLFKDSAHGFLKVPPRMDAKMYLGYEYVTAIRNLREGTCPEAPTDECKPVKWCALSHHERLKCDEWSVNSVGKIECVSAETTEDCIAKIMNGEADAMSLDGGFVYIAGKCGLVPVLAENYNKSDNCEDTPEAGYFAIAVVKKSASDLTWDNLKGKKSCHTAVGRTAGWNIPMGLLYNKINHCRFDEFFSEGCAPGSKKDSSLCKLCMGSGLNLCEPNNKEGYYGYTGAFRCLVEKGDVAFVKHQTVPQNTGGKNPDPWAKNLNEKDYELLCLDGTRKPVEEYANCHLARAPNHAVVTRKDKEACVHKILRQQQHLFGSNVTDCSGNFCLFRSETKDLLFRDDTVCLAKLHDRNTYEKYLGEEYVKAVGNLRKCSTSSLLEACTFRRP

B1: PvRBP2b human mAb 253245 (antibody, V domains shown)
VH: EVQLVQSGAEVKKPGSSMKVSCKASGGTFNRYVFSWVRQAPGQGLEWMGGILPILETTYYAKNFKGRVTITADESTSTVYMELSSLTSEDTAVYFCARDEHDYVWGSYRPSLTGPWGQGTLVTVSS
VL: QSALTQPPSTSGSPGQSVTISCTGTGIDVGGFSYVSWFQYHPGKAPKLIIFEVTKRPSGVPDRFSGSKSGNTASLTISGLQADDEAEYYCSSYAVNNNFVFGTGTKVTVL
notes: variable region as the Fab heavy chain in PDB 6WTY; cloned into a human IgG1 backbone, full-length antibody; lambda light chain; as the Fab light chain in PDB 6WTY; IgG1; source: Expi293 HEK cells, transfected, purified (Protein A, gel filtration)
Turning to B1, in assay [1], the “percent binding left at 1 M NH4SCN” value was above 75% and the “percent binding left at 2 M NH4SCN” value is below 75%. Also, the “percent decrease in FRET signal of PvRBP2b161–1454 with TfR1–Tf” value (from here on “percent decrease in FRET signal”) in assay [2] is above 70%. In assay [3], the “fold signal over control mAbs 099100 and 043038” value (shortened to “fold signal”) is above 20 fold. Besides, the “percent inhibition of PvRBP2b161–1454 binding to reticulocytes” value (“percent inhibition” below) in assay [4] was above 98%.

B2: PvRBP2b human mAb 241242 (antibody, V domains shown)
VH: EVQLLESGGGLVQPGGSLRLSCAVSGFTFRNYALSWVRQAPGKGLDWVSTISASGGATYYADSVKGHFTISRDNSKNILYLDMKSLRAEDTAIYYCARDGGSYTPYFFLDSWGQGALVTVSS
VL: SYELTQPASVSVAPGQTAQITCGGNSIGRKSIHWYQHKPGQAPVLVISYDSDRPSGIPERFSGSNSGNTATLTISKVEAGDEADFYCQVRDSDNDHVVFGGGTKLTVL
notes: variable region as the Fab heavy chain in PDB 6WN1; cloned into a human IgG1 backbone, full-length antibody; lambda light chain; as the Fab light chain in PDB 6WN1; IgG1; also called 241424 [sic]; source: Expi293 HEK cells, transfected, purified (Protein A, gel filtration)
For B2, in assay [1], the “percent binding left at 1 M NH4SCN” value was above 75% and the “percent binding left at 2 M NH4SCN” value is below 75%. Besides, the “percent decrease in FRET signal” value in assay [2] is above 70%. In addition, the “fold signal” value in assay [3] is above 20 fold. Moreover, the “percent inhibition” value in assay [4] is above 98%.

B3: PvRBP2b human mAb 283284 (antibody, V domains shown)
VH: QVQLQQWGAGLLKPSETLALTCTVYGGSSSGYYWNWIRQSPGKGLEWIGEISDSGSTIYNPSLESRVTMSVDTSKNQFSLKLTSVTAADTAVYYCAKAILTRYNWLDPWSQGTLVTVSS
VL: DIVMTQSPSSLSASVGDRISISCRASQGVNSALAWYQQKPGKAPKLLIYDASTLESGVPSRFSGSGSGTDFALTINSLQPEDFATYYCQQFNSYPLTFGGGTKVEIK
notes: variable region as the Fab heavy chain in PDB 6WQO; cloned into a human IgG1 backbone, full-length antibody; kappa light chain; as the Fab light chain in PDB 6WQO; IgG1; source: Expi293 HEK cells, transfected, purified (Protein A, gel filtration)
As to B3, in assay [1], the “percent binding left at 1 M NH4SCN” value was below 75%. The “fold signal” value in assay [3] was above 20 fold.

B4: PvRBP2b human mAb 258259 (antibody, V domains shown)
VH: EVQLLESGGGLVRPGGSQRLSCAASGFTFTPYAMTWVRQAPGKGLEWLSTISGSGGSTYYADSVKGRFTISRDNSKNMLYLQMNSLTAEDTALYYCTKDKDEYTFGHNAFDVWGQGTMVTVSS
VL: SYELTQAPSVSVAPGQTARITCGGDNIGRKTVNWYQQKPGQAPVLVIYYDNDRPSGIPERFSGSNSGNMATLSISRVEVGDEADYYCQVWDSNNDHPVFGGGTKLTVV
notes: variable region as the Fab heavy chain in PDB 6WTV; cloned into a human IgG1 backbone, full-length antibody; lambda light chain; as the Fab light chain in PDB 6WTV; IgG1; same clonal group as 273264; source: Expi293 HEK cells, transfected, purified (Protein A, gel filtration)
For the molecule B4, the “percent binding left at 1 M NH4SCN” value in assay [1] is below 75%. In assay [2], the “percent decrease in FRET signal” value was above 70%. The “fold signal” value in assay [3] is above 20 fold. Also, the “percent inhibition” value in assay [4] was above 98%.

B5: PvRBP2b human mAb 273264 (antibody, V domains shown)
VH: EVQLLESGGGLVRPGGSQRLSCAASGFTFTPYAMTWVRQAPGKGLEWLSTISGSGGSTSYADSVKGRFTISRDNSKNILYLQMDSLRAEDTALYYCTKDKDEYTFGHNAFDVWGRGTMVTVSS
VL: SYELTQAPSVSVAPGQTARITCGGDNIGRTSVHWYQQKPGQAPVLVIFYDNDRPSGIPERFSGSNSGNMATLSISRVEVGDEADYYCQVWDSNNDHPVFGGGTKLTVV
notes: variable region as the Fab heavy chain in PDB 6WTU; cloned into a human IgG1 backbone, full-length antibody; lambda light chain; as the Fab light chain in PDB 6WTU; IgG1; same clonal group as 258259; source: Expi293 HEK cells, transfected, purified (Protein A, gel filtration)
With B5, in assay [1], the “percent binding left at 1 M NH4SCN” value is below 75%. For the same molecule, the “percent decrease in FRET signal” value in assay [2] is above 70%. Further, in assay [3], the “fold signal” value was above 20 fold. In addition, the “percent inhibition” value in assay [4] is above 98%.

B6: PvRBP2b human mAb 243244 (antibody, V domains shown)
VH: QVQLVESGGGVVQSGKSLRVSCAASGFTFSSYGMHWVRQAPGKGLEWVAFISYDGDNKYSADSVKGRLTISRDNSKNTLYLQMNSLRPEDTAVYYCAKESNYGENAFDIWGQGTMVTVSS
VL: QSALTQPRSVSGSPGQSVTISCTGTSSDVGFYNFVSWYQHHPGKAPKLIIYDVSERPSGVPDRFSGSKSGNTASLSISGLQPEDEADYYCCSYAGTYTFVFGSGTKVTVL
notes: variable region as the Fab heavy chain in PDB 6WNO; cloned into a human IgG1 backbone, full-length antibody; lambda light chain; as the Fab light chain in PDB 6WNO; IgG1; same clonal group as 237235; source: Expi293 HEK cells, transfected, purified (Protein A, gel filtration)
Turning to B6, the “percent binding left at 2 M NH4SCN” value in assay [1] was above 75%. Further, in assay [3], the “fold signal” value was above 20 fold. Besides, the “percent inhibition” value in assay [4] was determined as 43%.

B7: PvRBP2b human mAb 237235 (antibody, V domains shown)
VH: QVQLVESGGGVVQPGRSLRLSCAASGFMFNSYGMHWVRQAPGKGLEWMAFISYDGSDDYYGDSVKGRITISRDNSKNTLFLHINSLRTEDTAVYYCAKESNYGENAFDVWGHGTMVTVSS
VL: QSALTQPRSVSGSPGQSVTISCTGTSNDVGFYNFVSWYQHHPGKAPKLMIYDVTERPSGVPDRFSGSKSGNTASLTISGLQAEDEAEYYCCSYAGTYTFVFGHGTKVTVL
notes: variable region as the Fab heavy chain in PDB 6WM9; cloned into a human IgG1 backbone, full-length antibody; lambda light chain; as the Fab light chain in PDB 6WM9; IgG1; same clonal group as 243244; source: Expi293 HEK cells, transfected, purified (Protein A, gel filtration)
As to B7, the “percent binding left at 2 M NH4SCN” value in assay [1] is above 75%. Besides, the “fold signal” value in assay [3] is above 20 fold. Moreover, the “percent inhibition” value in assay [4] turned out to be 47%.

B8: PvRBP2b human mAb 251249 (antibody, V domains shown)
VH: EVQLVESGGGLVKPGGSLRLSCEASGFLFSSYSMNWVRQAPGKGLEWVSSITGYSSEVFYTDSVKGRFTVSRDNSKNSLYLQMDSLRAEDTAVYYCARALTIFGVVITDYWFFDLWGRGTLVTVSS
VL: EIVLTQSPATLSLSPGDRATLSCRASQSVTTFLAWYQQKPGQAPRLLIYDVSNRATGIPARFSGSGSGTDFTLTISSLEPEDFAVYYCQQRSNWGLTFGGGTKVEIK
notes: variable region as the Fab heavy chain in PDB 6WOZ; cloned into a human IgG1 backbone, full-length antibody; kappa light chain; as the Fab light chain in PDB 6WOZ; IgG1; source: Expi293 HEK cells, transfected, purified (Protein A, gel filtration)
For B8, the “percent binding left at 1 M NH4SCN” value in assay [1] is below 75%. For the same molecule, the “fold signal” value in assay [3] is above 20 fold. Also, in assay [4], the “percent inhibition” value came out at 59%.

B9: P. vivax Reticulocyte Binding Protein 2b, residues 161–1454 (domain or fragment, P. vivax strain Salvador I, UniProt A5K736 161-1454, looked up)
chain: PSPESTQITNTTDNIDYFDISDESNYYLISQLRPHFSNIYFFDEFKRYASYHTEIKRYEDIHKTKVNSLLNEASRAIGICNRAKNTVKGLINILENPQKFKTQRESYDVKLRQYEEKKEAFRGCLLNKNRKNLDQIKKINNEIRDLLEKLKCSQDCQTNVYFDMIKIYLVDFKKMPYENYDTFIKQYKNSYLSGVDMIRKIEKQIDNPVTINAIKFTQKEMGYIIDRFEYHLQKVKHSIDQVTALSDGVKPKQVTKNRLKEYYFNIGNYYSIFKFGKDSLNMLNKALIHKEKIVHNLLGELFGHLEERISKLIDSEYFITESNNIISQSEETLKLAEDVYDKNTKLIEDLTLYPHLEINEFKKDYDNNVEDLRESIIYIQSYVSSIKSAYRYNVLEKDSVESKQKNIPANSNAQKKVDELLSIIDSISYSNFSVAENFQKMKDYYKEIEKLKIKILQLIEAIKKYQQHVEELINKEKAVAILKEDINKIIEYIKGIIEKLKQLISANKDFDKIFQQVEQLINEALFNKDQFEHNKNDLHTKMKEIMHTFHERDLQQFLDNMSKFLKDQEASYQNADSKEKLDQLLTTVKAKQDELKEMKCDDIPDIIDNLKKESQNVLNLKDEVINKQFENMRTEMSSSLDQMTKEYNALKSSIEEYEAEKKGIENHKQNIIKRKNTFIVAEHENDEDVPEGKNTYNEFISNKDTILQKESAISNQMNTLEEKKRNRKTTLQTYGDAIQKLETYTEKKDEETKVLLDKFNTEVENFKLDEDEKSFNDAKSIVSNTINEVENENKNIDSIKKVNIAMKRSRSNQQSVEQLIRNKDNLLKEKMEKHFQKINTDEIIGQSAKANLLNNLESEKAIINEQLNDAHLNDLKLQIEKTLSYCEKSRENIKGNNGTHPEELNASEIEWEATKGKIETLNSNYQALNKNMDDIINKQHDEMIVLIDRDIKEKGKDIELKVEQRIQALEKMKAKLSSFDTNEDVKKYQSDINKEELIKLKEMSTAVLNKIDQNKNQLINVKTKSSGYVAESNGIKNKQTEPSQEKDKQIVYNTNRGDIEKVYKNIRDMYNELDDVEKEETTSNEVDNIEMQYDRLLINLLVQKINEENTKAKGLMEEIKSYIENIESVQAKMSDETREGATEFEFNQYQQSSLANDKKITEIVQHAINKKGEAERSKKTNEVKSIKNDVNTYMQQVIDEYNAMQKALGDIKNVNDLLISTSGRRIAEEISKSTNEAENFEKQAKGELGKINDIIEKMENQMVQAKEHENKIHINLEDKQIDEEVQKIRQIHEE
modifications: DyLight 488 (NHS ester) in the FRET assay; biotin (BirA site) in the competition ELISA between human mAbs
notes: PvRBP2b, P. vivax strain Salvador I, PlasmoDB PVX_094255 (total length 2806 amino acids), residues 161-1454; also called PvRBP2b_(161–1454); PvRBP2b; source: recombinant; expressed and purified in a similar manner as PvRBP2b161–470 (E. coli SHuffle T7; HisTrap, Q-Sepharose, size exclusion) or as previously described
B9: the binding result in assay [5] is “binds”.

Source of the values: publication PMC7943553, “Naturally acquired blocking human monoclonal antibodies to Plasmodiumvivax reticulocyte binding protein 2b” (Nature Communications, 2021).
